Our source for the pKa and blocking effect on the K+ current values is publication PMC3968367.

The target of one data set is His28 (UniProt position 50, AFGRAHGKCMN). The conditions noted are these: free toxin (inferred); cited from earlier work.
The target of data set [1] is Shaker IR (Drosophila) (UniProt P08510).
Data set [2] addresses rKv1.2 (rat) (UniProt P63142).
Data set [3] addresses rKv1.3 (rat) (UniProt P15384).
Data set [4] addresses Shaker IR (Drosophila) (UniProt P08510). This is another data set of the same source.
Another data set has as its target rKv1.1 (rat) (UniProt P10499).
For data set [5], the target named is rKv1.2 (rat) (UniProt P63142). This is another data set of the same source.
Data set [6] concerns the target rKv1.3 (rat) (UniProt P15384). The source holds these as a separate data set.
A further data set deals with rKv1.6 (rat) (UniProt P17659).
Chain of rKv1.6 (rat) (P17659 whole entry): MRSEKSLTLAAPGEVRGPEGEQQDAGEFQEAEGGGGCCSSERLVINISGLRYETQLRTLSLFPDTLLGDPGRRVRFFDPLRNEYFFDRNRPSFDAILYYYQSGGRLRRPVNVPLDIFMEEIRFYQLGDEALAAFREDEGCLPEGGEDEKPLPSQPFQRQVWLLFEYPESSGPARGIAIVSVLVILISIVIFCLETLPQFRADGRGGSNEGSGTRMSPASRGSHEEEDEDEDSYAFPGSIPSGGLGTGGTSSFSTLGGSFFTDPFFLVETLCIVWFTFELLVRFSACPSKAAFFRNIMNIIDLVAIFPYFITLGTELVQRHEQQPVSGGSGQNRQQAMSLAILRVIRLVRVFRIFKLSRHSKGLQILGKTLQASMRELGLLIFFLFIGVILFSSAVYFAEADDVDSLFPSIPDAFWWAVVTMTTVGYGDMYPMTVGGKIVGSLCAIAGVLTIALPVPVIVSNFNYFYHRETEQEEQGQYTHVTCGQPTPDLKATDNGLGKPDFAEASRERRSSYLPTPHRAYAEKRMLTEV

Chain of Shaker IR (Drosophila) (P08510 whole entry): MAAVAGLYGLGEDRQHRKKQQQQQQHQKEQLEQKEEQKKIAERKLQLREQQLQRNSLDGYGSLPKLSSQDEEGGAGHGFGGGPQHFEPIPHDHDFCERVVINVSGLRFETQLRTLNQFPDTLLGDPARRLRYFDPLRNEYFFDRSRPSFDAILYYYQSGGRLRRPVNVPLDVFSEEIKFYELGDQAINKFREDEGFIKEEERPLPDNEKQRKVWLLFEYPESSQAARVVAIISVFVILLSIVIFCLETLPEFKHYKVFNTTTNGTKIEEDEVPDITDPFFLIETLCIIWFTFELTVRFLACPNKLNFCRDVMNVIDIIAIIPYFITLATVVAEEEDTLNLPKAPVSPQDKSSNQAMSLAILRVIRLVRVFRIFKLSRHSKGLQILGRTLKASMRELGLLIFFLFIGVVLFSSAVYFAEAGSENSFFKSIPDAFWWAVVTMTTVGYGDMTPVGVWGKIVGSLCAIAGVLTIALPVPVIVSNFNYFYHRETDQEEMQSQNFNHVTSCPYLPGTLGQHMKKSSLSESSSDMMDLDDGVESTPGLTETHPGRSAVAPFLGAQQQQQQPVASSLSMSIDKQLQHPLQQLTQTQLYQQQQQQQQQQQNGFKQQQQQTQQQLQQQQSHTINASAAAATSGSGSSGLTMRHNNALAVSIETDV
Chain of rKv1.2 (rat) (P63142 whole entry): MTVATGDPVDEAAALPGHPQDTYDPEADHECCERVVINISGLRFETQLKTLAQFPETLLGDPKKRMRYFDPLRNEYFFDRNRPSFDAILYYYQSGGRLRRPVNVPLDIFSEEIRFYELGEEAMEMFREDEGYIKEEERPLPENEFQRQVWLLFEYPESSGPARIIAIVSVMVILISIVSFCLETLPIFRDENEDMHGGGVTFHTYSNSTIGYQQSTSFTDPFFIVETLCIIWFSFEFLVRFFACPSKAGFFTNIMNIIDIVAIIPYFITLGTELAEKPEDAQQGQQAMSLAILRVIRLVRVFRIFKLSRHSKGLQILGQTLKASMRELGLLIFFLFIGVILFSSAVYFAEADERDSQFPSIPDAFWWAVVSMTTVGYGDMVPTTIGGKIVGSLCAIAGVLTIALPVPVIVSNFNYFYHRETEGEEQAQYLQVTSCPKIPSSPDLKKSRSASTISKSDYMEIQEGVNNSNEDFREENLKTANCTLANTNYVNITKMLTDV
Chain of rKv1.3 (rat) (P15384 whole entry): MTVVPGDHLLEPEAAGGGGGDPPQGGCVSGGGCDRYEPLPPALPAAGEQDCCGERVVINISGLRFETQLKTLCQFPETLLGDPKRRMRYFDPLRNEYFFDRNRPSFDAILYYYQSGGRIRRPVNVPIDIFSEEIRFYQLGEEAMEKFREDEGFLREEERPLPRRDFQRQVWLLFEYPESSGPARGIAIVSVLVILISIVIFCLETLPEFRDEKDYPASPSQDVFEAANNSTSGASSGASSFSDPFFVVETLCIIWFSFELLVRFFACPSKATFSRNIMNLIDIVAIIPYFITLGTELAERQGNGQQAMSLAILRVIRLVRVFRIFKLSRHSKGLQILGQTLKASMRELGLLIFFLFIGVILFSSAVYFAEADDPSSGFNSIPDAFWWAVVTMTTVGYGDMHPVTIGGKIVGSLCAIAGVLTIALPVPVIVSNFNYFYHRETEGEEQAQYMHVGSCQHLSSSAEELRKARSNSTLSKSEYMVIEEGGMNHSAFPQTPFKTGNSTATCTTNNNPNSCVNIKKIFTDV
Chain of rKv1.1 (rat) (P10499 whole entry): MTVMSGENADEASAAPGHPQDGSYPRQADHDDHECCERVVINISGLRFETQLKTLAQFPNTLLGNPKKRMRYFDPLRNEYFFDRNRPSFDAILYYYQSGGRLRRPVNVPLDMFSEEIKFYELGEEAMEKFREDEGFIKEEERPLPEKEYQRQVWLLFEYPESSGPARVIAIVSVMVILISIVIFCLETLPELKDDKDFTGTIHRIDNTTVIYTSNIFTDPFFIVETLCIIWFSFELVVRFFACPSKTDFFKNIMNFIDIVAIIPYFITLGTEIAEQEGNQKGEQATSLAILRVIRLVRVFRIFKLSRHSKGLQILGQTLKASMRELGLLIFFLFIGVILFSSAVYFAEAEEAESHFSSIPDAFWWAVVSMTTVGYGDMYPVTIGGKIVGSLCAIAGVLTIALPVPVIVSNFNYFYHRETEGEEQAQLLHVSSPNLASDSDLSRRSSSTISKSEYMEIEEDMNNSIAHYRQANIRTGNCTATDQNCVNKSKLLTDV

On to “Ts6 (alpha-KTx12.1, TsTX-IV, butantoxin) (Tityus serrulatus)”, for which, in the data set with His28, the pKa is listed as 5.2.
“Ts6 (from UniProt P59936 23-62) (peptide)”: the blocking effect on the K+ current at 1 µM Ts6, two-microelectrode voltage clamp on Xenopus oocytes with Shaker IR (Drosophila) [1] turned out to be 79%; with rKv1.2 (rat) [2] it was 86%; with rKv1.3 (rat) [3], 98%.
For the substance “Ts7 (from UniProt P46114 23-59) (peptide)”, the blocking effect on the K+ current at 1 µM Ts7, two-microelectrode voltage clamp on Xenopus oocytes stood at 97% with Shaker IR (Drosophila) [4]; 85% with rKv1.1 (rat); 91% with rKv1.2 (rat) [5]; 89% with rKv1.3 (rat) [6]; 94% with rKv1.6 (rat).

The pKa is the pH at which an ionisable group is half protonated.
